Article PMC4491180
pKd: −log10 of the molar value.

Key:
[1] = molecular target: wild-type Grb2 (growth factor receptor-bound protein 2), bacterially expressed and purified (UniProt P62993); assay: MST; monomer–dimer equilibrium of Grb2 in the presence of the SOS1 peptide (…); apparent Kd, dimer to monomers
[2] = molecular target: wild-type Grb2 (growth factor receptor-bound protein 2), bacterially expressed and purified (UniProt P62993); assay: MST; unlabelled Grb2 (7.3 nM to about 30 μM) titrated into 100 nM Atto488-labelled Grb2; 20 °C; PBS without calcium and magnesium, 0.01% Tween 20; apparent Kd, dimer to monomers

pKd [1]: 6.15 | pKd [2]: 6.12
Substance: wild-type Grb2 (growth factor receptor-bound protein 2), bacterially expressed and purified (from UniProt P62993 1-217) (natural protein)
